Test: yeast display, Sf9 membrane polyspecificity reagent, FACS + sequencing; frameworks hold sequencing errors
Method in brief: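 Nanobodies came from a synthetic yeast display library in Saccharomyces cerevisiae BJ5465, induced with galactose for 36–48 hours and stained for 1 hour at 4 °C with 10% biotinylated, detergent-solubilized Sf9 membrane reagent. Cells were enriched on streptavidin microbeads and then FACS-sorted, with low and high (top ~1%) gates set on anti-HA fluorescence for expression and streptavidin fluorescence for reagent binding. Each polyreactivity label reflects the gate a clone came from. Genes were amplified by colony PCR, sequenced by MiSeq 2 × 250 and filtered by CDR length.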

Sequence	polyreactivity (PSR sort gate)
QVQLVESGGGLVQAGGSLRLSCASSGFTFPFYAMGWYRQAPGKESELVAAISWSGGSTYYADSVKGRFTISRDNAKNTVYLQMNSLKPEDTAVYYCAAEYISSPLGYDYWGQGTQVTVSS	high polyreactivity
QVQLVESGGGLVQAGGSLRLSCAASGRIFKNYAMGWYRQAPGKERELVAAITWSVGSTYYADSVKGRFTISRDNAKNTVYLQMNSLKPEDTAVYYCAARRSDFRGAKDGYYYWGQGTQVTVSS	low polyreactivity
QVQLVESGGGLVQAGGSLRLSCAASGSIIDANAMGWYRQAPGKERELVAAITSGDSTYYADSVKGRFTISRDNAKNTVYLQMNSLKPEDTAVYYCAADPVWHYYRMDYWGQGTQVTVSS	low polyreactivity
QVQLVESGGGLVQAGGSLRLSCAASGSIFAYAMGWYRKAPGKEMELVAAISGGSTYYADSVKGRFTISRDNAKNTVYLQMNSVKPEDTAVYYCAADLDDERYYWGQGTQVTVSS	low polyreactivity
QVQLVESGGGLVQAGGSLRLSCAASGSLFYSNTMGWYRQAPGKERELVAAISRGGSTYYADSVKGRFTISRDNAKNTVYLQMNSLKPEDTAVYYCAARYRWAPAYDYWGQGTQVTVSS	high polyreactivity
QVQLVESGGGLVQAGGSLRLSCAASGFTITYNAMGWYRKAPGKEREFVAAITNNGSTYYADSVKGRFTISRDNAKNTVYLQMNSLKPEDTAVYYCAVDPGYYDEYKYWGQGTQVTVSS	low polyreactivity
QVQLVESGGGLVQAGGSLRLSCAASGSTFVSNAMGWSRQAPGKERELVAAITRRGGSTYYADSVKGRFTISRDNAKNTVYLQMNSLKPEDTAVYYCAAYSTLTPAYEYWGQGTQVTVSS	high polyreactivity
QVQLVESAAGLVQAGASLRLSCAPSGRIYRYYAMGWYRQAPGKDRELVAAISSSGGSTYYADSVKGRFSISRDNAKNTVYLQKNSLKPEDTAVYYCAARKASGRFGYWGQGTQVTVSS	high polyreactivity
QVQLVESGVGLVQAGGSLRLSCAASGRTFWYYGMGWYRQAPGKERELVAAISRSGGRTYYADSVKARFTISRDNAKNTVYLQMNSLKPEDTAVYYCGASYRRTFDYWGQGTQVTVSS	high polyreactivity
QVQLVESGGGLVQAGGSLRLSCAASGSTFTHYAMGWYRQAPGKERELVAAISWGGGTTRYADSVKGRFTISRDNAKNTVYLQMNSLKPEDTAVYYCAAYRTHGPPRAIRFDYWGQGTQVTVSS	high polyreactivity
QVQLVESGGGLVQAGGSLRLSCAASGIILNYNAMGWYRQAPGKERELVAVIRTRGGSTYYADSVKGRFTISRDNAKNTVYLQMNSLKPEDTAVYYCAAKQIPWHRGGFGYDYWGQGSQVTVSS	low polyreactivity
QVHLVESGGGLVQAGGSLRLSCAASGITFKWNDMGWYRQAPGKEREFVAAITGSTGSTFYADSVKGRFTISRDNAKNTVYLQMNSLKPEDTAVYFCAAGPWFYYWRQGTQVTVSS	low polyreactivity
QVQLVESGGGLVQAGGSLRLSCAASGSIFYYYAMGWYRQAPGKERELVAAITRSVSRTYYADSVKGRFTISRDNAKNTVYLQMNYLKPEVTAVYYCNVVGSSETSTVYYCGQGTQVTVSS	high polyreactivity
QVQLVESGGGLVKAGGSLRLSCAASGFIFRTYAMGWYRQAPRKERELVAAITGRGGTTYYADSVKGRFTISRDHAKNTVYLQMNSLKAEDTAVYYCADRSRDYNYNPYDYWGLGTQVTVSS	high polyreactivity
QVQLVDSGGGLVQAGGSLRLSCAASGSIFLLYVMGWYRQAPGKERELVAAISSGGSTNYADSVKGRFTISRDNAKITVYLQMNSLKPEDTAVYYCNAVAGPQGVKLYDYWGQGTQVTVSS	low polyreactivity
QVQLVESGGGLVQAGGSLRLSCAASGSTFYFYAMGWYRQAPGKERELVASITVRGGRTYCADSVKGRFTISRDNAKNTVYLQMNSLKPEDTAVYYCAENWSYRAYDYWGQGTQVTVSS	low polyreactivity
QVQLVESGGGLVQAGGSLRLSCAASGSTLSSYAMGWYRPAPGTERELGAVISGGGRTYYADSVKGRFTISRDNAKNTVYLQMNSLKPEDTAVYYCAAVTFSLGYRYYYWGQGTQVTVSS	high polyreactivity
QVQLVESGGGLVQAGGSLRLSCDASGGTITNYAMGWYRQAPGKERELVAAITDSGATTYYADSVKGRFTISLVTAKNPVSLQMNSLKPEDTAVYDCNAELDLYTYFDYWGQGTQVTVSS	low polyreactivity
QVQLVESGAGLVQAGGSLRISCAASGFTFAYYAMGWYRQAPGKEREFVAAITKGGGSTNYADSVKGRFTISRYNAKNTVYLQMNSLNPEDTAVYYCNADYFVWYIGRVFSRYGYWGQGTQVTVSS	low polyreactivity
QVQLVESGGGLVQAGGSLRLSCAASGGIFRGYAMGWYRQAPGKERELVATSRSSGRTNYADSVKGRFTISRDNAKNTVYLQMNSLKPEDTAVYFCNKRRWWQYDSWGDWVLGGDDYWGQGTQVTVSS	low polyreactivity
QVQLVESGGCLVQAGGSLRLTCAASGFIFYRYAMGWYRHAPGKESELVAAISKSGSSTYYADSVKGRFTISRDNAKNTVYLQMNSLKPEDTAVYYCARDRQSRSLLEDDYWGQGTQVTVSS	high polyreactivity

Sequence	polyreactivity (PSR sort gate)
QVQLVESGGGLVQAGGSLRLSCAASGSIFSSYAMGWYRQAPGKDRELVAAITRSGGSTYYADSVKGRFTISRDNAKNTVYVQMNSLKPEDTAVYYCNARGKGHYYWGQGTQVTVSS	high polyreactivity
QVQLVESRGGIVQAGGSLRLSCAASGSIFTGNAMGWYRQAPGKERELVAAITSSAGSTYYADSVKGRFTISRDNAQYTVYLQMNSLKPEDTAVYYCAKDYYSKHFPNYDYWGQGTQVTVSS	low polyreactivity
QVQLVESVGGLVQAGGSLRLSCAASGITFYKYAMGWYRQAPGKERELVASIDRVGITNYADSVKGRFTISRDNAKNTVYLQMNSLKPEDTAVFYCNADYYRYYSITYGGDYWGQGTQVTVSS	high polyreactivity
QVQLVESGGGIVQAGGSLRLSCAASGSIFWVNVMGWYRQAPGKEREFVAAITRSGGSTYYADSVKGRFTISRDNAKNTVYLQMNSLKPEDTAVYYCNRRGRRGYDYWGQGTLVTVSS	high polyreactivity
QVQLVESGGGLVQAGGSLRLSCAASGFIFAFYDKGWYRQAPGKERELVAAISWGGSTYYADSVKGRVTISRDNAKNTVYLQMNSLKPEDTAVYYCAARLSRSYLYGYWGQGTQVTVSS	high polyreactivity
QVQLVESGGRLVQAGGSLRLSCAASGRTFGGYMGWYRQAPGKESELVAVISSGDSTNYADSVKGRFTITRDNAKNTVYLQMNSVKPEDSAVYYCIAYGSDRLTLDDFWGQGTQVTVSS	low polyreactivity
QVQLVESGGGLVQAGGSLRLSCAASGSTFSDYPMGWYRQAPGKERELVAAISDSGSGTYYADSVKGRFTISRDNAKNTVYLQMNSLKPEDTAVYYCNTDPRFAMDWGQGTQVTVSS	low polyreactivity
QVQLVESGGGLVQAGGSLRLSCAASGSTFGLNAMGWYRQAPGKERELVAAISYSDTTTYYADSVKGRFTISRDNAKNTVYLQMNSLKPEDTAVYYCAAEGDYAFLYDYWGQGTQVTVSS	high polyreactivity
QVQLVESGGGLVQAGGSLRLSCAASGRIFKYYAMGWYRQAPGKERELVAAITSAGNTKYADSVKGRFTISRDNAKNTVYLQMNSLKPEDTAVYYCARGRYYVIGSYDYWGQGTQVTVSS	high polyreactivity
QVQLVESGGGLVQAGGSLRLSCAASGRIFLVYAMGWYIQAPGKERDLVASISSRGSSTNYADSVKGRFTISRDNANNTDYLQMNSLKPEDTAVYYCAAGVYRPRYQSTAYDYWGQGTQVTVSS	high polyreactivity
QVQLVESGGGLVQAGGSLRLSCAASGYIFVKNAMGWYRQAPGTERELVAAISTRGGRTYYADSVKGRFTISRDNAKNTVYLQMNSLKPEDTAVYYCAAVHQTSYYDANSYGYWGQGTQVTVSS	high polyreactivity
QVQLVESGGGLVQAGGILRLSCAASGFIFRRYAMGWYRQEPGKERELVAAINYSGGSTYYADSVKGRFTISRDNAKNTVYLKMNSLKPEDTAVYYCAAGSRRGIDPGSDYWGQGNQVTVSS	low polyreactivity
QVQLVESGGGLVQAGGSLRLSCAASGSIFHGYGMGWYRPAPGKERELVASITWIGGDTYYADSVKGRFTISRDNAKNTVYLQMNSLKPEDTAVYYCNAEWVVTYIYDYWGQGTQVTVSS	low polyreactivity
QVQLVESGGGLVQAGGSLRLSCAASGITFGVNAMGGSRQAPGKERELVAAITQRGDSTYYADSVKGRFTISRDTAKNTLDLQMNSLKPEDTAVYYCNADYAWRFPVTYDYWGQGTQVTVSS	low polyreactivity
QVQLVESGGGLVQAGGSLRLSCAASGSTFRYYVMGWYRQAPGKERELVAAISSSGGSTYYADSVKGRFTISRDIAKNTVYLQMNSLKPEDTAVYYCARDKGYVSYRYNYWGQGTQVTVSS	high polyreactivity
QVQHVESGGGLVQAGGSLRLSCAASGLTFSQNAMGWYRQPQGQERELVAAISSSGTSTYYADSVKGRFSISRDNAKNTVYLQMNSVKPEDTAVYYCNAPPGTFQWQGHSDYWGQGTQVTVSS	low polyreactivity
QVQLEESGGVLVQAGGSLRLSCAASGRTFGHYAMGWYRPAPGKERELVAAITRDDGTNYADSVKGRFTISGDNAKNTVYLQMNRLKPEDTAVYYCNADVWLRRVYDYWGQGTQVTVSS	low polyreactivity
QVQLVDSGGGLVQAGGSLRLSCAASGITFSGYDMGWYRQAPWKERELVADITISTGSTYYADSVKGRYTISRDNAKNSVYLQMNSLKPEDTAVYYCAADWTGGFYTWYVIPYDYWGQGTQVTVSS	low polyreactivity
QVQLVESGGGLVQAGGSLRLSCAASGSIFIYYAMGWYRQAPGKERELVAAISWSGDRTYYADSVKGRFTISRDNAKNTVYLQMNSLKPEDTAVYYCAARVVTPSAFPRYYWGQGTQVTVSS	high polyreactivity
QVQLVESGGGLVQAGGSLRLTCAASGRILGYYAMGWYRPAPGKERELVAAITYSGGSTYYADSVKGRFSISRDNAKNTVYLQMNILKPEDTAVYYCAADKLLLGLYGSTWNDYWGQGTQVTVSS	low polyreactivity
